# According to the nanobody polyreactivity screen of Harvey et al. (2022):
# Test: yeast display, Sf9 membrane polyspecificity reagent, FACS + sequencing; frameworks hold sequencing errors
# Procedure, shortened: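 After 36–48 hours of galactose induction, yeast (Saccharomyces cerevisiae BJ5465) displaying a synthetic nanobody library were stained at 4 °C for 1 hour with 10% biotinylated, detergent-solubilized Sf9 membrane reagent. Streptavidin microbeads enriched the stained cells before FACS sorting into low and high (top ~1%) gates on anti-HA and streptavidin fluorescence. Each clone's polyreactivity label reflects its gate of origin.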
row,Sequence,polyreactivity (PSR sort gate)
1,QVQLVESGGGLVQAGGSLRLSCAASGLIFARYATGWYRQAPGKERELVAAITDTGDITYSADSVKGRFTISRDNAKNTVYLQMNSLKPEDTGVYYCNADGVESVGGVETLYWRGGYWGQGTQVTVSS,low polyreactivity
2,QVQLVESGGGLVHAGGSLRLSCAASGIIFYLYAMGWYRQAPGKERELVAAISRRGVSTYYADSVKGRFTISRDNAKNTVYLQMNSLKTEDTAVYYCAAAGFGYTGEEYWGQGTQVTVSS,high polyreactivity
3,QVQLVESGGGLVQAGGSFRLSCAASGGTVDTYVMGWYRQAPGKERELVAVITRGASTYYADSVKGRFTISRDNAKNTVYLQMNSLKPEDTAVYYCAAACYSPDYYRFWYSFDYWGQGTQVTVSS,low polyreactivity
4,QVKLVESGRGLVQAGGSLRLSCAASGSIFAQNVMGWYRQAPGKERELVAAISYSGGTTYYADSVKGRFTISRDNAQNTVYLQMNSLKPEDTAVYYCAAEFGVYEYDYWGQGTQVTVSS,low polyreactivity
5,QVQLVESGGGLVQAGGILRLSCAASGSTFPGYAMGWYRQAPGKERELVAAISGNGVITYYADSVKGRFTISRDNAKNTVYLQMNSLKPEDTAVYYCNADRLYWGGYYGLTYWGQGTQVTVSS,low polyreactivity
6,QVQLVESGGGLVQAGGSLRLSCAASGITFIYYDMGWYRQAPGKEREFVAAINYRGTSTYYADSVKGRFTISRDNAKNTVYLQMNSLKPEDTAVYYCAARLRQTGGDRLGYWGQGTQVTVSS,high polyreactivity
7,QVQLVESGGGLVQAGGSLRLSCAASARIFSPYAMGWYRQAPGKERELVAAITSASSTYYADSVKGRFTISRDNAKNTLYLQMNSLKPEDTAVYYCAASYWRYGSAFDYWGQGTQVTVSS,high polyreactivity
8,QVQLVESGGGLVQAGGSLRLSCAASGFNFDANPLGWYRQAAGKERELVAAISWSGGSTYYADSVKGRFTISRDYANNSVYLQMNTLKPEDTAVYYCAADILGYSYEYWGQGTQVTVSS,high polyreactivity
9,QVQLVESGGGLVQAGGSLRLSCAASGITFRRYAMGWYRPAPGKERELVAVISVSGGRTHYADSVKGRFTISRDNAKNTVYLQMNSLKPEDTAVYYCAAQFSYRYYTDEVGYWGQGTQVTVSS,high polyreactivity
10,QVQLVESGGGLVQAGGSLRLSCAASGRTFTSYPMGWYRQAPGKERELVAAISQGGGRTYYADSVKGRFTISRDNAKNTVYLQMNSLKPEDTAVYYCNTVSLSLRYDYWGQGTQVTVSS,high polyreactivity
11,QVHLVDSGGGLVQAGGSLRLSCAASGRTFYSYAMGWYRQAPGKERELVAAINSGGDTYYADSVKGRFTISRDNAKNSVYLQMNSLKPEDTAVYYCAADYYWEMDSWGQGTQVTVSS,low polyreactivity
12,QVQLVESGGGLVQAGGSLRLSCAASGLIFFFYAMGWYRQAPGKERELVASISGGGITYYADSVKGRFTISRDNAKNTVYLQMNSLKPEDTAVYYCAARVLDWRGDIHDSEYWGQGTQVTVSS,low polyreactivity
13,QVQLVESGGGLVQAGGSLRLSCAASGSTFDAYAMGLYRQAPGKERELVAAITNAGSTNYADSVKGRFTISRDNAKNTVYLQMNSLKPEDTAVYYCATDWYHRYLDGRYDYWGQGTQVTVSS,low polyreactivity
14,QVQLVESGGGLVQAGGSLRLSCAASGYIFAVYAMGWYIQAPGKEREFVAVITWRGGSTYYADSVKGRFTISRDNAKNTVYLQMNSLKPEDTAVYYCADDVYAQYDYWGQGTQVTVSS,high polyreactivity
15,QVQLVESGGGLVQAGGSLRLSCAASGSIFARNAMGWYRQAPGKERELVASITSNSGNTYYADSVKGRFTISRDNAKNTVYLQMNSLKPEDTAVYYCAADQLSDEYDYWGQGTQVTVSS,high polyreactivity
16,QVQLVESGGGLVQAGGSLRLSCAASGGTFEFYTMGLYRQAPGKERELVAVINASGDSTYYADSVKGRFTISRDNAKNTVYLQMNSLKPEDTAVYYCAADHRGEYDYWGQGTQVTVSS,low polyreactivity

row,Sequence,polyreactivity (PSR sort gate)
1,QVQLVESGGGLVQAGGSLRLSCAASGYTFNKYAMGWYRQATGKGRELVATIRNGGNTYYADSVKGRFTISRDNAKITVYFQMNSLKPEDTAVYYCAATVRGVGYRYYYWGQGTQVTVSS,high polyreactivity
2,QVQLVESGGGLVQAGGSLRLSCAASGSISYFNAMGWYRPAPGKERELVAAITSGGSTYYADSVKGRFTISRDNAKNTVYLQMTSLKPEDTAVYYCNAPLEWGVYAAQNWDDGYWGQGTQVTVSS,low polyreactivity
3,QVQLVESGGGLVQAGGSLRLSCAASGFILKYYAMGWYRQAPGKERELVAAISSSGGRTYYADSVKGRFTISRDNAKNTVYLQMNSLKPEDTAVYYCAARVIASRGRYGYWGQGTQVTVSS,high polyreactivity
4,QVQLVESGGGLVQAGGSLRLSCAASGRTFRYNVMGWYRQAPGKERELVASISRISGSTYYADSVKGRFTISRDNAKNTVYLQMNSLKPEDTADYYARAAGEYDYWGQGTQVTVSS,high polyreactivity
5,QVQLVESGGGLVQAGGSLRLSCAASGSIFGEYAMGWYRQAPGKERELVADITTGGNTNYADSVKGRFTISRDNAKNTVYLQMNSLKPEDSAVYYCYAFGNTYGYWWFGYWGQGTQVTVSS,low polyreactivity
6,QVQLVESGGGLVQAGGSLRLSCAASGFTIERNAMGWYRQAPGKERELVATISQSGTNTYYADSVKGRFTISRDNAKNTVYLQMNSLKPEETAVYYCNARDIFYRYDYWGQGTLVTVSS,low polyreactivity
7,QVQLVESGGGLVQAGGSLRLSCAASGFTFPYYAMGWSRQAPGKERELVAAISFSGGSPYYADSVKGRFTISRDNAKNTVYLQMNSLKPEDTAVYYCAATTKYNGRRSYFKFDYWGQGTQVTVST,high polyreactivity
8,QVQLVESGGGLVQAGGSLRLSCAASGFIFQTNVMGWYRQAPGKERELVAAISSGDSTYYADSVKGRFTISRDNAKNTVYLQMNSLKPEDTAVYYCAARRGTGSYSYRYPYGYDYWGQGTQVTVSS,low polyreactivity
9,QVQLVESGGGLVQAGGSLRLSCAASGSTFTLNAMVWYRQAPGKERELVADISWSSGRTYYADSVKGRFTISRDNAKNTVYLQMNSLKPEVSAVYYCATYDFWKVKFYAYYPEFDYWGQGTQVTVSS,low polyreactivity
10,QVQLVESGGGLVQAGGTLRLSCAASGGIFVANAMGWYRQAPGKERELVAAISRSGGSTYYADSVKGRFTISRDNAKNTVYLQMNSLKPEDTAVYYCAAKSRRQYTVGLTSDYWGQGTQVTVSS,high polyreactivity
11,QVHLVESGGGLVQAGGSLRLSCAASGRTFVYNAMGWYRQAPGKERELVAAISQSGGSTYYADSVKGRFTISRDNAKNTVYLQMNSLKPEDTAVYYCAARYKTGSYVRYNYWGQGSQVTVSS,high polyreactivity
12,QVQLVESGGGLVQAGGSLRLSCAASGFIFYTYAMGWYRQAPGKERELVAAISWRGGRTYYADSVKGRFTISRDNAKNTVYLQMNSLKPEDTAVYYCNAVTRSGEYDYWGQGTQVTVSS,high polyreactivity
13,QVQLVESGGGLVQAGGSLRLSCAASGNTFRWYAMGWYRQAPGKERELVAAITWSGGSTYYADSVKGRFTISRDNAKNPVYLQMNSLKPEDTAVYYCAARRWAGEYDYWGQGTQVTVSS,low polyreactivity
14,QVQLVESGGGLVQAGGSLRLSCAASGSTFRYNAMGWYRQAPGKERELVAAITSGGTTNYADSVKGRFTISRDNAKNTVYLQMNSLKPEDTAVYYCAKKRPGFLRYGSIGEFQYDYWGQGTQVTVSS,low polyreactivity
15,QVQLVLSGGGLVQAGGSLRLSCAASGNTIIRYAMGWYRQEPGKESELVAAISYSGGRTYYADSVKGRFTISRDNAKNTVYLQMNSLKPEDTAVYYCAARYYRSGYRKKIYYWGQGTQVTVSS,high polyreactivity
16,QVQLVESGGGLVEAGGSLRLSCAASGSTINYNAMGWYRQAPGKERELVAAIDSGVSTNYADSVNGRFTISRDNAKNTVYLQMNSLKPEDTAVYYCAVGGAGSDDYWGQRTQVTVSS,low polyreactivity
